# Data from FireProtDB (doi:10.1006/jmbi.1998.1906).
# B1: Lysozyme C, P61626 (parent)
# chain: MKALIVLGLVLLSVTVQGKVFERCELARTLKRLGMDGYRGISLANWMCLAKWESGYNTRATNYNAGDRSTDYGIFQINSRYWCNDGKTPGAVNACHLSCSALLQDNIADAVACAKRVVRDPQGIRAWVAWRNRCQNRDVRQYVQGCGV
# Variants of: B1
# Conditions: Homo sapiens; pH 2.51; Thermal; DSC; glycine 0.05 M; reversible: yes; structure 1LZ1; whole UniProt chain shown
Variant,Tm [°C],unfolding enthalpy (calorimetric) [kcal/mol],unfolding enthalpy (van 't Hoff) [kcal/mol]
MKALIVLGLVLLSVTVQGKVFERCELARTLKRLGMDGYRGISLANWMCLAKWESGYNTRATNYNAGDRSTDYGIFQINSRYWCNDGKTPGAVNACHLSCSALLQDNIADAVACAKRVARDPQGIRAWVAWRNRCQNRDVRQYVQGCGV,43.5,61.5,70.1
MKALIVLGLVLLSVTVQGKVFERCELARTLKRLGMDGYRGISLANWMCLAKWESGYNTRATNYNAGDRSTDYGIFQINSRYWCNDGKTPGAANACHLSCSALLQDNIADAVACAKRVVRDPQGIRAWVAWRNRCQNRDVRQYVQGCGV,43.9,65.6,69.9

# Same assay, conditions: Homo sapiens; pH 2.7; 49.2 °C; Thermal; DSC; glycine 0.05 M; reversible: yes; structure 1LZ1; whole UniProt chain shown
Variant,ddG of mutation (higher = less stable) [kcal/mol],heat capacity change of unfolding [kcal/mol/K]
MKALIVLGLVLLSVTVQGKVFERCELARTLKRLGMDGYRGISLANWMCLAKWESGYNTRATNYNAGDRSTDYGIFQINSRYWCNDGKTPGAVNACHLSCSALLQDNIADAVACAKRVARDPQGIRAWVAWRNRCQNRDVRQYVQGCGV,0.57,1.84
MKALIVLGLVLLSVTVQGKVFERCELARTLKRLGMDGYRGISLANWMCLAKWESGYNTRATNYNAGDRSTDYGIFQINSRYWCNDGKTPGAANACHLSCSALLQDNIADAVACAKRVVRDPQGIRAWVAWRNRCQNRDVRQYVQGCGV,0.43,1.53

# Same assay, conditions: Homo sapiens; pH 2.7; Thermal; DSC; glycine 0.05 M; reversible: yes; structure 1LZ1; whole UniProt chain shown
Variant,Tm [°C],"change of melting temperature, mutant - wild type (higher = more stable) [°C]",heat capacity change of unfolding [kcal/mol/K],unfolding enthalpy (calorimetric) [kcal/mol]
MKALIVLGLVLLSVTVQGKVFERCELARTLKRLGMDGYRGISLANWMCLAKWESGYNTRATNYNAGDRSTDYGIFQINSRYWCNDGKTPGAVNACHLSCSALLQDNIADAVACAKRVARDPQGIRAWVAWRNRCQNRDVRQYVQGCGV,46.6,-2.6,1.84,72.2
MKALIVLGLVLLSVTVQGKVFERCELARTLKRLGMDGYRGISLANWMCLAKWESGYNTRATNYNAGDRSTDYGIFQINSRYWCNDGKTPGAANACHLSCSALLQDNIADAVACAKRVVRDPQGIRAWVAWRNRCQNRDVRQYVQGCGV,47.3,-1.9,1.53,73.7
MKALIVLGLVLLSVTVQGKVFERCELARTLKRLGMDGYRGISLANWMCLAKWESGYNTRATNYNAGDRSTDYGIFQINSRYWCNDGKTPGAVNACHLSCSALLQDNIADAVACAKRAVRDPQGIRAWVAWRNRCQNRDVRQYVQGCGV,44.8,-4.4,1.27,67

# Same assay, conditions: Homo sapiens; pH 2.72; Thermal; DSC; glycine 0.05 M; reversible: yes; structure 1LZ1; whole UniProt chain shown
Variant,Tm [°C],unfolding enthalpy (calorimetric) [kcal/mol],unfolding enthalpy (van 't Hoff) [kcal/mol]
MKALIVLGLVLLSVTVQGKVFERCELARTLKRLGMDGYRGISLANWMCLAKWESGYNTRATNYNAGDRSTDYGIFQINSRYWCNDGKTPGAVNACHLSCSALLQDNIADAVACAKRVARDPQGIRAWVAWRNRCQNRDVRQYVQGCGV,46.8,68.9,73.4
MKALIVLGLVLLSVTVQGKVFERCELARTLKRLGMDGYRGISLANWMCLAKWESGYNTRATNYNAGDRSTDYGIFQINSRYWCNDGKTPGAVNACHLSCSALLQDNIADAVACAKRAVRDPQGIRAWVAWRNRCQNRDVRQYVQGCGV,45.3,62.2,65.8

# Same assay, conditions: Homo sapiens; pH 2.9; Thermal; DSC; glycine 0.05 M; reversible: yes; structure 1LZ1; whole UniProt chain shown
Variant,Tm [°C],unfolding enthalpy (calorimetric) [kcal/mol],unfolding enthalpy (van 't Hoff) [kcal/mol]
MKALIVLGLVLLSVTVQGKVFERCELARTLKRLGMDGYRGISLANWMCLAKWESGYNTRATNYNAGDRSTDYGIFQINSRYWCNDGKTPGAVNACHLSCSALLQDNIADAVACAKRVARDPQGIRAWVAWRNRCQNRDVRQYVQGCGV,49.9,72.5,79.2

# Same assay, conditions: Homo sapiens; pH 3.02; Thermal; DSC; glycine 0.05 M; reversible: yes; structure 1LZ1; whole UniProt chain shown
Variant,Tm [°C],unfolding enthalpy (calorimetric) [kcal/mol],unfolding enthalpy (van 't Hoff) [kcal/mol]
MKALIVLGLVLLSVTVQGKVFERCELARTLKRLGMDGYRGISLANWMCLAKWESGYNTRATNYNAGDRSTDYGIFQINSRYWCNDGKTPGAVNACHLSCSALLQDNIADAVACAKRVARDPQGIRAWVAWRNRCQNRDVRQYVQGCGV,52,77.8,81.6
MKALIVLGLVLLSVTVQGKVFERCELARTLKRLGMDGYRGISLANWMCLAKWESGYNTRATNYNAGDRSTDYGIFQINSRYWCNDGKTPGAVNACHLSCSALLQDNIADAVACAKRAVRDPQGIRAWVAWRNRCQNRDVRQYVQGCGV,51,68.9,72.2

# Same assay, conditions: Homo sapiens; pH 3.15; Thermal; DSC; glycine 0.05 M; reversible: yes; structure 1LZ1; whole UniProt chain shown
Variant,Tm [°C],unfolding enthalpy (calorimetric) [kcal/mol],unfolding enthalpy (van 't Hoff) [kcal/mol]
MKALIVLGLVLLSVTVQGKVFERCELARTLKRLGMDGYRGISLANWMCLAKWESGYNTRATNYNAGDRSTDYGIFQINSRYWCNDGKTPGAVNACHLSCSALLQDNIADAVACAKRVARDPQGIRAWVAWRNRCQNRDVRQYVQGCGV,54.4,81.8,84.7

# Same assay, conditions: Homo sapiens; pH 2.69; Thermal; DSC; glycine 0.05 M; reversible: yes; structure 1LZ1; whole UniProt chain shown
Variant,Tm [°C],unfolding enthalpy (calorimetric) [kcal/mol],unfolding enthalpy (van 't Hoff) [kcal/mol]
MKALIVLGLVLLSVTVQGKVFERCELARTLKRLGMDGYRGISLANWMCLAKWESGYNTRATNYNAGDRSTDYGIFQINSRYWCNDGKTPGAANACHLSCSALLQDNIADAVACAKRVVRDPQGIRAWVAWRNRCQNRDVRQYVQGCGV,47.5,71.5,75.6

# Same assay, conditions: Homo sapiens; pH 2.85; Thermal; DSC; glycine 0.05 M; reversible: yes; structure 1LZ1; whole UniProt chain shown
Variant,Tm [°C],unfolding enthalpy (calorimetric) [kcal/mol],unfolding enthalpy (van 't Hoff) [kcal/mol]
MKALIVLGLVLLSVTVQGKVFERCELARTLKRLGMDGYRGISLANWMCLAKWESGYNTRATNYNAGDRSTDYGIFQINSRYWCNDGKTPGAANACHLSCSALLQDNIADAVACAKRVVRDPQGIRAWVAWRNRCQNRDVRQYVQGCGV,50.1,74.4,80.9
MKALIVLGLVLLSVTVQGKVFERCELARTLKRLGMDGYRGISLANWMCLAKWESGYNTRATNYNAGDRSTDYGIFQINSRYWCNDGKTPGAVNACHLSCSALLQDNIADAVACAKRAVRDPQGIRAWVAWRNRCQNRDVRQYVQGCGV,48.2,67.2,70.6

# Same assay, conditions: Homo sapiens; pH 3.03; Thermal; DSC; glycine 0.05 M; reversible: yes; structure 1LZ1; whole UniProt chain shown
Variant,Tm [°C],unfolding enthalpy (calorimetric) [kcal/mol],unfolding enthalpy (van 't Hoff) [kcal/mol]
MKALIVLGLVLLSVTVQGKVFERCELARTLKRLGMDGYRGISLANWMCLAKWESGYNTRATNYNAGDRSTDYGIFQINSRYWCNDGKTPGAANACHLSCSALLQDNIADAVACAKRVVRDPQGIRAWVAWRNRCQNRDVRQYVQGCGV,52.8,79.2,86.4

# Same assay, conditions: Homo sapiens; pH 3.16; Thermal; DSC; glycine 0.05 M; reversible: yes; structure 1LZ1; whole UniProt chain shown
Variant,Tm [°C],unfolding enthalpy (calorimetric) [kcal/mol],unfolding enthalpy (van 't Hoff) [kcal/mol]
MKALIVLGLVLLSVTVQGKVFERCELARTLKRLGMDGYRGISLANWMCLAKWESGYNTRATNYNAGDRSTDYGIFQINSRYWCNDGKTPGAANACHLSCSALLQDNIADAVACAKRVVRDPQGIRAWVAWRNRCQNRDVRQYVQGCGV,54.8,82.5,86.4

# Same assay, conditions: Homo sapiens; pH 2.54; Thermal; DSC; glycine 0.05 M; reversible: yes; structure 1LZ1; whole UniProt chain shown
Variant,Tm [°C],unfolding enthalpy (calorimetric) [kcal/mol],unfolding enthalpy (van 't Hoff) [kcal/mol]
MKALIVLGLVLLSVTVQGKVFERCELARTLKRLGMDGYRGISLANWMCLAKWESGYNTRATNYNAGDRSTDYGIFQINSRYWCNDGKTPGAVNACHLSCSALLQDNIADAVACAKRAVRDPQGIRAWVAWRNRCQNRDVRQYVQGCGV,41.4,56,59.6

# Same assay, conditions: Homo sapiens; pH 3.1; Thermal; DSC; glycine 0.05 M; reversible: yes; structure 1LZ1; whole UniProt chain shown
Variant,Tm [°C],unfolding enthalpy (calorimetric) [kcal/mol],unfolding enthalpy (van 't Hoff) [kcal/mol]
MKALIVLGLVLLSVTVQGKVFERCELARTLKRLGMDGYRGISLANWMCLAKWESGYNTRATNYNAGDRSTDYGIFQINSRYWCNDGKTPGAVNACHLSCSALLQDNIADAVACAKRAVRDPQGIRAWVAWRNRCQNRDVRQYVQGCGV,52.6,70.6,73.7
